From patent US20240101668A1 (WUGEN, published 2024)
Where a chain is given by its changes, count along the chain named.

T1: huCLL1-Q244-Avi-Tev-His (human, UniProt Q5QGZ9 65-265)
T1 construct: extracellular domain; also called CLL-1 K244Q
T1 sequence (looked up): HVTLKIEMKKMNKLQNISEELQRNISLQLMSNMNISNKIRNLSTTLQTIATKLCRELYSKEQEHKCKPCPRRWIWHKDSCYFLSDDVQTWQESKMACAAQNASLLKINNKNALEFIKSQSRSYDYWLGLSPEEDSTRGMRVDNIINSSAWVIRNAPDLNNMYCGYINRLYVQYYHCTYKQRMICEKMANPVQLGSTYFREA

T2: huCLL1-K244-Avi-Tev-His (human, UniProt Q5QGZ9 65-265)
T2 construct: extracellular domain
T2 sequence (looked up): T1 sequence (looked up) with Q180K

B1: Polypeptide No. 4 (scFv, V domains shown)
VH: QVQLVQSGAEVKKPGASVKVSCKASGGTFSSYAISWVRQAPGQGLEWMGWINPNSGNTGYAQKFQGRVTMTRDTSTSTVYMELSSLRSEDTAVYYCAREHGDMDVWGQGTTVTVSS
VL: EIVMTQSPATLSVSPGERATLSCRASQNINSDLAWYQQKPGQAPRLLIYGASTRATGIPARFSGSGSGTEFTLTISSLQSEDFAVYYCQQYDSLPFTFGPGTKVDIKR
notes: scFv
B2: Polypeptide No. 5 (scFv, V domains shown)
VH: QVQLVQSGAEVKKPGASVKVSCKASGNTFTSYGISWVRQAPGQGLEWMGWINPNSGGTKYAQKFQGRVTMTRDTSTSTVYMELSSLRSEDTAVYYCARESWFGELYYGMDVWGKGTTVTVSS
VL: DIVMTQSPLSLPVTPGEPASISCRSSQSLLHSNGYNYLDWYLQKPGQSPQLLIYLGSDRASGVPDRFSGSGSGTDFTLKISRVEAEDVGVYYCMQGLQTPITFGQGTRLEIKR
notes: scFv
B3: Polypeptide No. 6 (scFv, V domains shown)
VH: QVQLVQSGAEVKKPGASVKVSCKASGYTFTAYYTHWVRQAPGQGLEWMGWMNPNSGHTSYAQKFQGRVTMTRDTSTSTVYMELSSLRSEDTAVYYCAREAYDSFDYWGQGTLVTVSS
VL: DIQMTQSPSSLSASVGDRVTITCRASQSISSYLNWYQQKPGKAPKLLIYEASTLETGVPSRFSGSGSGTDFTLTISSLQPEDFATYYCQQANSFPFTFGPGTKVDIKR
notes: scFv
B4: Polypeptide No. 7 (scFv, V domains shown)
VH: QVQLVQSGAEVKKPGASVKVSCKASGYTFTDYYMHWVRQAPGQGLEWMGWINPNSGGTNYAQKFQGRVTMTRDTSTSTVYMELSSLRSEDTAVYYCARDSRIAVAASSFDYWGQGTLVTVSS
VL: DIQMTQSPSSLSASVGDRVTITCRASRGINNWLTWYQQKPGKAPKLLIYGASSLQSGVPSRFSGSGSGTDFTLTISSLQPEDFATYYCQQSYRIPYTFGQGTKLEIKR
notes: scFv
B5: Polypeptide No. 8 (scFv, V domains shown)
VH: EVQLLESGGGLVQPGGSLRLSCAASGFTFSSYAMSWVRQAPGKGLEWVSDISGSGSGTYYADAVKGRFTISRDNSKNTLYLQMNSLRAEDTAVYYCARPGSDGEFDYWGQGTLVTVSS
VL: DIQMTQSPSSLSASVGDRVTITCRASQSVSSFLNWYQQKPGKAPKLLIYAASSLQSGVPSRFSGSGSGTDFTLTISSLQPEDFATYYCQQSYTTPLTFGQGTKVEIKR
notes: scFv
B6: Polypeptide No. 9 (scFv, V domains shown)
VH: QVQLVQSGAEVKKPGSSVKVSCKASGGTFSSDAINWVRQAPGQGLEWMGGFDPEDGETIYAQKFQGRVTITADESTSTAYMELSSLRSEDTAVYYCARGPSGYDFEFDYWGQGTLVTVSS
VL: DIQMTQSPSSLSASVGDRVTITCRSSRNISHWLAWYQQKPGKAPKLLIYKASSLESGVPSRFSGSGSGTDFTLTISSLQPEDFATYYCQQAISFPLTFGGGTKVEIKR
notes: scFv
B7: Polypeptide No. 10 (scFv, V domains shown)
VH: QVQLVQSGAEVKKPGASVKVSCKASGDTFTTYAISWVRQAPGQGLEWMGWINPNSGVATYANKFQGRVTMTRDTSTSTVYMELSSLRSEDTAVYYCAREGIVGATDAFDIWGQGTMVTVSS
VL: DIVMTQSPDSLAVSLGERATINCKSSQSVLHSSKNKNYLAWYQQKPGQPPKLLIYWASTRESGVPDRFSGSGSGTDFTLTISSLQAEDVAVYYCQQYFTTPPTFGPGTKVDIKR
notes: scFv
B8: Polypeptide No. 11 (scFv, V domains shown)
VH: QVQLVQSGAEVKKPGASVKVSCKASGDTFTNHYMHWVRQAPGQGLEWMGWINPNSGGTNYAQKFQGRVTMTRDTSTSTVYMELSSLRSEDTAVYYCARDLVPAAVGGYFDYWGQGTLVTVSS
VL: B5 VL with V29L, S30G, F32W, N34A, S91A, Y92N, T93S, T94F
notes: scFv
B9: Polypeptide No. 20 (scFv, V domains shown)
VH: QVQLVQSGAEVKKPGASVKVSCKASGYMFTGYYIHWVRQAPGQGLEWMGWINPNSGGTNYAQKFQGRVTMTRDTSTSTVYMELSSLRSEDTAVYYCAKDRFGSGNYGYMDVWGKGTTVTVSS
VL: B4 VL with R27Q, G28S, N30D, N31R, T34A, R93S, I94T, Y96W, K103R
notes: scFv
B10: Polypeptide No. 24 (scFv, V domains shown)
VH: QVQLVQSGAEVKKPGSSVKVSCKASGYSFTSYGISWVRQAPGQGLEWLGWISAYNGNTNYGQSLQGRVTITADESTSTAYMELSSLRSEDTAVYYCARARGAGTFFDYWGQGTLVTVSS
VL: DIVMTQSPLSLPVTPGEPASISCRSSQSLLHSNGYNYLDWYLQKPGQSPQLLIYDATNLPTGVPDRFSGSGSGTDFTLKISRVEAEDVGVYYCMQALQTPFTFGQGTKLEIKR
notes: scFv
B11: Polypeptide No. 37 (scFv, V domains shown)
VH: QVQLVQSGAEVKKPGASVKVSCKASGYTFTGYYLHWVRQAPGQGLEWMGVISPSGGGTSYAQKFQGRVTMTRDTSTSTVYMELSSLRSEDTAVYYCARAGFGEGVFRHWGQGTLVTVSS
VL: not shown
notes: scFv
B12: Polypeptide No. 46 (scFv, V domains shown)
VH: QVQLVQSGAEVKKPGASVKVSCKASGYTFTSYYMHWVRQAPGQGLEWMGMINPSAGSTSYAQKFQGRVTMTRDTSTSTVYMELSSLRSEDTAVYYCASVDSSGWYAPFDYWGQGTLVTVSS
VL: B3 VL with S31T, E50D, T53N, F96P, P100G, D105E
notes: scFv
B13: Polypeptide No. 47 (scFv, V domains shown)
VH: EVQLLESGGGLVQPGGSLRLSCAASGFTFDEYAMHWVRQAPGKGLEWVSAIGAGGSTYYADSVKGRFTISRDNSKNTLYLQMNSLRAEDTAVYYCASSLGPELRGVDYYYYGMDVWGQGTTVTVSS
VL: B10 VL with D55A, T57S, N58S, P60Q, T61S, A96G, L97I, T99W, F101W, L109V
notes: scFv
B14: Polypeptide No. 48 (scFv, V domains shown)
VH: EVQLLESGGGLVQPGGSLRLSCAASGFNFDDYAMHWVRQAPGKGLEWVSVIYSGGSTYYADSVKGRFTISRDNSKNTLYLQMNSLRAEDTAVYYCTRHDFDYWGQGTLVTVSS
VL: B5 VL with V29I, S31T, F32Y, L33V, S91D, T93S, T94Y, L96Y
notes: scFv
B15: Polypeptide No. 49 (scFv, V domains shown)
VH: EVQLVESGGGLVKPGGSLRLSCAASGFTFSDYALHWVRQAPGKGLEWVSLISGDGGSTYYADSVKGRFTISRDDSKNTLYLQMNSLKTEDTAVYYCARDLGGERSYWGQGTLVTVSS
VL: B5 VL with V29I, S31T, F32W, N34A, S53T, Q89L, S91D, T93S, T94Y, L96P
notes: scFv

Assays:
[1] = target: T3, huCD33-G69 stably expressed on Jurkat cells (human, UniProt P20138 18-364); assay: FACS on cells;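 note: fixed Jurkat cells bearing either CD33 variant, barcoded by dye, exposed to myc-tagged scFv periplasmic extracts, detected with anti-myc PE antibody and read by flow cytometry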
T3 construct: whole, on cells; >200,000 receptors per cell; also called CD33 Mutant; CD33 R69G
Description: (§1) Jurkat cells were engineered to stably express either the huCD33-R69 or huCD33-G69 variant at >200,000 receptors per cell. Parental, huCD33-R69, and huCD33-G69 Jurkat cell lines were stained with differing levels of CellTrace Violet Cell Proliferation Kit (ThermoFisher, cat. #C34557) to barcode each cell line. Barcoded Jurkat cell lines were fixed with paraformaldehyde and incubated with myc-labeled scFv periplasmic extracts and a secondary anti-myc PE-conjugated monoclonal antibody. Appropriate positive and negative controls were used. Stained cells were analyzed by flow cytometry (CytoFLEX, Beckman Coulter, Inc.) and binding was assessed by change in PE mean fluorescence intensity (MFI) of the barcoded cell populations.

[2] = target: T4, huCD33-R69 stably expressed on Jurkat cells (human, UniProt P20138 18-364); assay: FACS on cells;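 note: fixed Jurkat cells bearing either CD33 variant, barcoded by dye, exposed to myc-tagged scFv periplasmic extracts, detected with anti-myc PE antibody and read by flow cytometry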
T4 construct: whole, on cells; >200,000 receptors per cell; also called CD33 WT; CD33^ARG69
Description: as §1

[3] = target: T5, huCD33-G69-Fc recombinant protein (human, UniProt P20138 18-259); assay: BLI;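 note: scFvs from periplasmic extracts captured on biosensors via anti-V5 antibody, exposed to recombinant huCD33 variants for 2 min, 5 min dissociation, scored as binding, no binding or ambiguous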
T5 construct: extracellular domain; also called CD33 R69G

[4] = target: T1, huCLL1-Q244-Avi-Tev-His; assay: BLI
Description: (§2) Discovered scFvs were analyzed for binding to huCD33-R69-His or huCD33-G69-Fc recombinant proteins (for anti-CD33 scFvs; for CLL-1 scFvs, huCLL1-K244-Avi-Tev-His or huCLL1-Q244-Avi-Tev-His were used; for FLT3, huFLT3-T227-His or huFLT3-M227-Fc were used) using BLI on a ForteBio Octet HTX instrument. Streptavidin-coated biosensors were loaded with biotinylated anti-V5 tag monoclonal antibody for 5 min and were then quenched and blocked with 20 μM amine-PEG2-Biotin for 5 min. scFvs were captured on biosensors from scFv clone periplasmic extracts. huCD33 (or huCLL-1, or huFLT3) proteins were then associated with the captured scFvs for 2 minutes, followed by dissociation with buffer (1×HBST [10 mM HEPES pH 7.4, 150 mM NaCl, 0.05% Tween-20], 1 g/L BSA) for 5 minutes. […] Data was fitted with 1:1 Langmuir equation and off-rate values were reported.
(§3) Analogous methods were used to assess selectivity of binding of polypeptides to CLL-1 K244 or CLL-1 Q244.

[5] = target: T2, huCLL1-K244-Avi-Tev-His; assay: BLI
Description: as §2, §3

T4 sequence (P20138 18-364): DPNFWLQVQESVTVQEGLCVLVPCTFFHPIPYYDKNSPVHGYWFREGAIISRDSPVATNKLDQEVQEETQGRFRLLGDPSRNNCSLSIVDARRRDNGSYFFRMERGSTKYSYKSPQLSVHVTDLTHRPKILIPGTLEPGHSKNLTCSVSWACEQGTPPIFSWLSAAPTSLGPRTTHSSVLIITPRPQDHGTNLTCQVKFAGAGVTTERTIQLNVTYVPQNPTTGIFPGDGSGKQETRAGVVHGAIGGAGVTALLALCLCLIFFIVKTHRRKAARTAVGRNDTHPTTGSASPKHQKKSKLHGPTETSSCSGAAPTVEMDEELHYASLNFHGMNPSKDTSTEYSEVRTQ
T5 sequence (P20138 18-259 R69G): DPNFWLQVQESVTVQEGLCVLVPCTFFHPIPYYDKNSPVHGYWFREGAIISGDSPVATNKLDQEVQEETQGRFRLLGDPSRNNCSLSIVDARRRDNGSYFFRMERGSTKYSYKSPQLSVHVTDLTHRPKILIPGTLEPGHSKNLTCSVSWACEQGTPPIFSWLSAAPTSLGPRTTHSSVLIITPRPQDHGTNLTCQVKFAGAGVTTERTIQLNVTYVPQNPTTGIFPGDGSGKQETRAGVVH
T3 sequence (P20138 18-364 R69G): as the sequence (P20138 18-364) above, with R52G counted along it

Binder | geometric mean MFI fold change over Jurkat parental [1] [fold] | geometric mean MFI fold change over Jurkat parental [2] [fold] | binding result [3] | binding result [4] | binding result [5]
B1 | < 2 | > 30 | no binding |  | 
B2 | < 2 | > 30 | no binding |  | 
B3 | < 2 | > 30 | no binding |  | 
B4 | < 2 | 10 to 30 | no binding |  | 
B5 | < 2 | 10 to 30 | no binding |  | 
B6 | < 2 | 2 to 10 | no binding |  | 
B7 | < 2 | 2 to 10 | no binding |  | 
B8 | < 2 | 2 to 10 | no binding |  | 
B9 | < 2 | 10 to 30 |  |  | 
B10 | < 2 | > 30 |  |  | 
B11 | 2 to 10 | < 2 |  |  | 
B12 |  |  |  | no binding | binds
B13 |  |  |  | no binding | binds
B14 |  |  |  | no binding | binds
B15 |  |  |  | no binding | binds
